Results on one substance are retold here after patent US20080193980A1.

The experiment deals with Human IgG. In words: plate coated with human IgG, luminescence (Imax) after CaCl2.

In the case of “Protein A-AQ fusion protein (from UniProt P02976 37-307; P07164 9-196)”, the concentration at which the luminescence intensity reached a plateau is 10 ng/mL.
